According to PMC8041713, “Identification and biochemical characterisation of tyrosine aminotransferase from Anthoceros agrestis unveils the conceivable entry point into rosmarinic acid biosynthesis in hornworts” (Planta, 2021):

Key:
Assay in all cases: purified protein
purified protein [1] = substrate: N[C@@H](Cc1ccccc1)C(=O)O; type: biochemical, Anthoceros agrestis; settings: co-substrate 80 mM 2-oxoglutarate, 0.48 mM PLP, 1 M Tris/HCl pH 8.5, 40 °C
purified protein [2] = substrate: CC(=O)C(=O)O; type: biochemical, Anthoceros agrestis; settings: co-substrate 6 mM L-tyrosine, 0.48 mM PLP, 1 M Tris/HCl pH 8.5, 40 °C
purified protein [3] = substrate: O=C(O)C(=O)Cc1ccccc1; type: biochemical, Anthoceros agrestis; settings: co-substrate 6 mM L-tyrosine, 0.48 mM PLP, 1 M Tris/HCl pH 8.5, 40 °C
purified protein [4] = substrate: O=C(O)CCC(=O)C(=O)O; type: biochemical, Anthoceros agrestis; settings: co-substrate 6 mM L-tyrosine, 0.48 mM PLP, 1 M Tris/HCl pH 8.5, 40 °C
purified protein [5] = substrate: N[C@@H](Cc1ccc(O)cc1)C(=O)O; type: biochemical, Anthoceros agrestis; settings: co-substrate 80 mM 2-oxoglutarate, 0.48 mM PLP, 1 M Tris/HCl pH 8.5, 40 °C
purified protein [6] = substrate: O=C(O)CC(=O)C(=O)O; settings: co-substrate 6 mM L-tyrosine, 0.48 mM PLP, 1 M Tris/HCl pH 8.5, 40 °C

B1: AaTAT (tyrosine aminotransferase) (Anthoceros agrestis) (protein)
chain: MATVLNQKRQAEILHGNGVEGGGGGLAVSKIMSKAVVGKPPVARKPAGKTVDKEWNVRPRIAALESRNPIRDIVETKLKPNPNLGKKPISLAQGDPTVYGHLKVPESACAALAEVATSYKYNGYAHSAGILECRSAVADFHSEHLPFELTPEDVGIVVGCSQAIEFSIACLAAEGSNMLVPRPGFPIYDTFCRYYGVEVRYYDLLPERGWEVDLEQVAELADDDTAAMILCNPSNPCGTSFSYQHLSQIAGLCEKLKLPIISDEIYEHMLFGEKKFTPMATFSLQVPVLTVGGISKRWLAPGWRLGWILICDPCCILEKSGVVEALKRIMQMTIGTSVLVQAAVPAMLQNTTPEFYKQTMKTLEDGCDCCYRRIQGIVGLDVPTKPDGAMYMMAKVDPSAFKDIPDDTVFAEKLVKEENIVVLPGSAFGIHNWLRLVFATPVYMLEEAFDRIEAFCLRHASVQN
notes: full length, 464 residues (1395 bp), N-terminal 6xHis tag kept, pET-15b, E. coli SoluBL21, Ni-NTA
Protein B1 has a Km (purified protein [1]) of 70.47 ± 4.18 mM, a Vmax (purified protein [1]) of 134 µmol/min/mg and a kcat (purified protein [1]) of 119 ± 26.9 s⁻¹. The kcat/Km (purified protein [1]) was 1700 ± 400 M⁻¹ s⁻¹, the Km (purified protein [2]) was 81.14 ± 15.12 mM and the Vmax (purified protein [2]) was 13.4 µmol/min/mg. The kcat (purified protein [2]) was 11.9 ± 1.6 s⁻¹, the kcat/Km (purified protein [2]) was 150 ± 20 M⁻¹ s⁻¹ and the Km (purified protein [3]) was 7.92 ± 2.35 mM. For the same protein, the Vmax (purified protein [3]) was 31.8 µmol/min/mg, the kcat (purified protein [3]) was 28.2 ± 6.2 s⁻¹ and the kcat/Km (purified protein [3]) was 3900 ± 1400 M⁻¹ s⁻¹. For the same protein, the Km (purified protein [4]) was 15.13 ± 1.34 mM, the Vmax (purified protein [4]) was 82.6 µmol/min/mg and the kcat (purified protein [4]) was 73.1 ± 5.2 s⁻¹. It also gave a kcat/Km (purified protein [4]) of 4900 ± 300 M⁻¹ s⁻¹, a Km (purified protein [5]) of 0.53 ± 0.05 mM and a Vmax (purified protein [5]) of 55.3 µmol/min/mg. It also gave a kcat (purified protein [5]) of 48.9 ± 7.6 s⁻¹, a kcat/Km (purified protein [5]) of 91700 ± 9800 M⁻¹ s⁻¹ and a Km (purified protein [6]) of 4.05 ± 1.44 mM. It also gave a Vmax (purified protein [6]) of 0.756 µmol/min/mg, a kcat (purified protein [6]) of 0.7 s⁻¹ and a kcat/Km (purified protein [6]) of 200 M⁻¹ s⁻¹.
